B1: FcεRIαECD-Fc2ST (Fc fusion)
chain: VPQKPKVSLNPPWNRIFKGENVTLTCNGNNFFEVSSTKWFHNGSLSEETNSSLNIVNAKFEDSGEYKCQHQQVNESEPVYLEVFSDWLLLQASAEVVMEGQPLFLRCHGWRNWDVYKVIYYKDGEALKYWYENHNISITNATVEDSGTYYCTGKVWQLDYESEPLNITVIKAPREKYWLQRNTGRGGEEKKGSKEKEEQEERETKTPECPSHTQPLGVFLFPPKPKDTLMISRTPEVTCVVVDVSQEDPEVQFNWYVDGVEVHNAKTKPREEQFNSTYRVVSVLTVLHQDWLNGKEYKCKVSNKGLPSSIEKTISKAKGQPREPQVYTLPPSQEEMTKNQVSLTCLVKGFYPSDIAVEWESNGQPENNYKTTPPVLDSDGSFFLYSRLTVDKSRWQEGNVFSCSVMHEALHNHYTQKSLSLSLGK
modifications: sialic acid added (α-2,6-sialic acid transferase co-expressed)
notes: Homodimer; also called IgETRAP; FceR1αECD-Fc2ST
B2: FcεRIαECD-Fc2 (Fc fusion)
chain: B1 chain
notes: also called FcεRIα ECD fusion protein; polypeptide dimer
B3: FcεRIαECD-Fc3 (Fc fusion)
chain: VPQKPKVSLNPPWNRIFKGENVTLTCNGNNFFEVSSTKWFHNGSLSEETNSSLNIVNAKFEDSGEYKCQHQQVNESEPVYLEVFSDWLLLQASAEVVMEGQPLFLRCHGWRNWDVYKVIYYKDGEALKYWYENHNISITNATVEDSGTYYCTGKVWQLDYESEPLNITVIKAPREKYWLQAQPQAEGSLAKATTAPATTRNTGRGGEEKKGSKEKEEQEERETKTPECPSHTQPLGVFLFPPKPKDTLMISRTPEVTCVVVDVSQEDPEVQFNWYVDGVEVHNAKTKPREEQFNSTYRVVSVLTVLHQDWLNGKEYKCKVSNKGLPSSIEKTISKAKGQPREPQVYTLPPSQEEMTKNQVSLTCLVKGFYPSDIAVEWESNGQPENNYKTTPPVLDSDGSFFLYSRLTVDKSRWQEGNVFSCSVMHEALHNHYTQKSLSLSLGK
B4: FcεRIαECD-Fc3ST (Fc fusion)
chain: B3 chain
modifications: sialic acid added (α-2,6-sialic acid transferase co-expressed)
notes: Dimer; also called FcεRIαECD-Fc3 + a2,6-ST

Key:
human IgE [1] = target: T1, human IgE (human, UniProt P01854-1 1-428); test: cell-based or functional assay
T1 sequence (P01854 other isoform, or with tags, fused parts or gaps): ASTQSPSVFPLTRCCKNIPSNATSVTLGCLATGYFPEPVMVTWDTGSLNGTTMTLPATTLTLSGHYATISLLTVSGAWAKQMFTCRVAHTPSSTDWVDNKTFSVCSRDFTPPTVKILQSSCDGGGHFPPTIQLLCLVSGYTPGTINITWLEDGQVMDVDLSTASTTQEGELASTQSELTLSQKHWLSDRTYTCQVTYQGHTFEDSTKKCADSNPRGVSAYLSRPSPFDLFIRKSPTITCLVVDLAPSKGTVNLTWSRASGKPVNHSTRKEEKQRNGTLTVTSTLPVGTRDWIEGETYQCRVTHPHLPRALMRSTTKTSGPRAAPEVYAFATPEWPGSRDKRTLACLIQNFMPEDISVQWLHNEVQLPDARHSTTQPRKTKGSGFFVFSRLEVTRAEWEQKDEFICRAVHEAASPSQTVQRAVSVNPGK

[2] = target: T2, mouse IgE (anti-dinitrophenyl IgE) (mouse, UniProt P06336 1-421); test: cell-based or functional assay
T2 sequence (P06336 whole entry): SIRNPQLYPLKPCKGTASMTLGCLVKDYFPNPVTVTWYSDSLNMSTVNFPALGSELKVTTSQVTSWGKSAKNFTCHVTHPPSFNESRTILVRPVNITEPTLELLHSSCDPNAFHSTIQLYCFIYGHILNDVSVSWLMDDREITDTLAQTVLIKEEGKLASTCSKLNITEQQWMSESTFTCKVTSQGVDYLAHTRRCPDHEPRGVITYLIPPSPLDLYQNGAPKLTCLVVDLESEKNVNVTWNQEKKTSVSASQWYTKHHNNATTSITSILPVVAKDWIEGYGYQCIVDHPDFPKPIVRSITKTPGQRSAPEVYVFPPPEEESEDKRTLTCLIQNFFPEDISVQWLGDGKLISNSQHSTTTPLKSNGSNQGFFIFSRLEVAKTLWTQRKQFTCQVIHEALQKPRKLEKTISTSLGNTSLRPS

[3] = target: T2, mouse IgE (anti-dinitrophenyl IgE); test: cell-based or functional assay; remark: listed apart in the source
human IgE [4] = target: T1, human IgE; test: SPR (ProteOn XPR36), human IgE
human IgE [5] = target: T1, human IgE; test: SPR (ProteOn XPR36), ratio of KD to that of omalizumab
Description: (§1) The experiments were conducted by identifying zero base using 25 mM NaOH as a regeneration buffer, and then repeating the above steps. Thereafter, a binding curve was identified using a protein binding analyzer (ProteOn XPR36, Bio-Rad Laboratories, Inc., USA).

human IgE [6] = target: T1, human IgE; test: SPR (ProteOn XPR36), ratio of ka to that of omalizumab
Description: as §1

human IgE [7] = target: T1, human IgE; test: SPR (ProteOn XPR36), ratio of kd to that of omalizumab
Description: as §1

human IgE [8] = target: T1, human IgE; test: SPR (ProteOn XPR36), ratio of KD of omalizumab to KD of IgETRAP
Description: as §1

human IgE [9] = target: T1, human IgE; test: SPR (ProteOn XPR36, GLC chip), IgE coated, protein flowed; KD = kd/ka
Description: as §1

human IgE [10] = target: T1, human IgE; test: SPR (ProteOn XPR36, GLC chip), IgE coated, protein flowed at various concentrations
Description: as §1

human IgE [11] = target: T1, human IgE; test: SPR kinetics on IgE (Table 3), omalizumab as reference; paragraph 125 ties the 69-fold end to FcεRIαECD-Fc2ST
Description: as §1

human IgE [12] = target: T1, human IgE; test: SPR kinetics on IgE (Table 3), omalizumab as reference; paragraph 125 ties the 1.5-fold end to FceR1αECD-Fc2ST
Description: as §1

| Binder | fold of KD against omalizumab (human IgE [5]) [fold] | fold of ka against omalizumab (human IgE [6]) [fold] | fold of kd against omalizumab (human IgE [7]) [fold] | Kd (human IgE [9]) [nM] | koff (human IgE [10]) [s⁻¹] | kon (human IgE [10]) [M⁻¹ s⁻¹] | also measured |
| --- | --- | --- | --- | --- | --- | --- | --- |
| B1 | 69 | 1.5 | 106 | 0.216 | 5.69e-05 | 264000 | IC50 of mast cell inhibition (β-hexosaminidase release, human FcεRI-expressing mouse bone marrow-derived mast cells, human IgE 1 ug/mL) (human IgE [1]): ~0.0112 mg/L; fold higher inhibitory ability on mast cell activity than Xolair (human IgE [1]): 58 fold; IC50 of inhibition of degranulation of mouse bone marrow-derived mast cells (β-hexosaminidase release) in the presence of 1 µg/ml mouse IgE [2]: 0.45 mg/L; Average inhibition ratio (%) of mast cell degranulation at IgETRAP 0.016 ug/mL (0.11 nM; IgE/IgETRAP molar ratio 47.8), anti-DNP IgE 1 ug/mL [3]: 2.12%; Average inhibition ratio (%) of mast cell degranulation at IgETRAP 0.063 ug/mL (0.42 nM; IgE/IgETRAP molar ratio 12.5), anti-DNP IgE 1 ug/mL [3]: 12.4%; Average inhibition ratio (%) of mast cell degranulation at IgETRAP 0.25 ug/mL (1.67 nM; IgE/IgETRAP molar ratio 3.15), anti-DNP IgE 1 ug/mL [3]: 13.8%; Average inhibition ratio (%) of mast cell degranulation at IgETRAP 0.5 ug/mL (3.33 nM; IgE/IgETRAP molar ratio 1.58), anti-DNP IgE 1 ug/mL [3]: 49.4%; Average inhibition ratio (%) of mast cell degranulation at IgETRAP 1 ug/mL (6.67 nM; IgE/IgETRAP molar ratio 0.79), anti-DNP IgE 1 ug/mL [3]: 99.3%; Average inhibition ratio (%) of mast cell degranulation at IgETRAP 2 ug/mL (13.3 nM; IgE/IgETRAP molar ratio 0.40), anti-DNP IgE 1 ug/mL [3]: 99.4%; Average inhibition ratio (%) of mast cell degranulation at IgETRAP 4 ug/mL (26.7 nM; IgE/IgETRAP molar ratio 0.20), anti-DNP IgE 1 ug/mL [3]: 99.8%; Kd (human IgE [4]): 0.215 nM; koff (human IgE [4]): 5.69e-05 s⁻¹; kon (human IgE [4]): 264000 M⁻¹ s⁻¹; fold of dissociation rate (Kd) against omalizumab (human IgE [7]): ~94.5 fold; Comparison of KD [Omalizumab/IgETRAP] (human IgE [8]): ~69 fold; fold change of equilibrium dissociation constant (KD) against omalizumab (printed 'higher'; meant as stronger binding) (human IgE [11]): 22 to 69 fold; fold lower association rate (ka) than omalizumab (human IgE [12]): 1.5 to 2 fold |
| B2 | 38 | 1.9 | 73 | 0.388 | 8.29e-05 | 214000 | – |
| B3 | 22 | 2 | 45 | 0.672 | 0.000133 | 198000 | – |
| B4 | 24 | 1.7 | 40 | 0.621 | 0.000149 | 240000 | – |
